Holding throughout (test): EMSA
Conditions in all cases: 10 mM Tris pH 7.5, 100 mM KCl (Fig. 3 legend; not in Methods), 1 mM DTT, 2.5% glycerol, 20 mM MgCl2, 500 ng poly(dI-dC), 0.05% NP-40; 30 nM DNA; 10 min room …

Data set [1] has as its target T1, His-GlnR (Mycobacterium smegmatis mc2 155) (UniProt A0R4C4).
T1 sequence: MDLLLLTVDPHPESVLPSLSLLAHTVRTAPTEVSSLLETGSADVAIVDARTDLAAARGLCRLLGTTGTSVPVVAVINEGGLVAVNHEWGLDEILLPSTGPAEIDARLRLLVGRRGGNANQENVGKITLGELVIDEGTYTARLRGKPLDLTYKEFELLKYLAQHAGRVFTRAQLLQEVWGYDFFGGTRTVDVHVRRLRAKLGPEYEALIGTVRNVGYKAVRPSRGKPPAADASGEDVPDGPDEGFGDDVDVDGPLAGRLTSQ

Data set [2] concerns the target T2, MBP-NnaR (Mycobacterium smegmatis mc2 155) (UniProt A0QPK7).
T2 sequence: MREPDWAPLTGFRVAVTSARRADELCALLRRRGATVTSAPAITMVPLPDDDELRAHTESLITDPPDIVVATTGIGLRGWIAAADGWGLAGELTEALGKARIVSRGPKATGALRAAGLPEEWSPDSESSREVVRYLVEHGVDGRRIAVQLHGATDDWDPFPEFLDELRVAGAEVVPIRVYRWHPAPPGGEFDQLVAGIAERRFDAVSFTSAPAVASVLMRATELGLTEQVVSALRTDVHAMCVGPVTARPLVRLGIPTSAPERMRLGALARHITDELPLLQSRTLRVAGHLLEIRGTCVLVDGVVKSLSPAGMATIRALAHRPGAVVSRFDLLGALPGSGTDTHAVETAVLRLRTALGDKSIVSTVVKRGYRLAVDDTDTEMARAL

Data set [3] deals with T3, MBP-NnaR;His-GlnR (Mycobacterium smegmatis mc2 155;Mycobacterium smegmatis mc2 155) (UniProt A0QPK7+A0R4C4).
T3 sequence 1: T2 sequence
T3 sequence 2: T1 sequence

“CGTGTGGCCCTTTCGTTCGATCCCGAGCACAGAGATTAACTGTACTGACCACGCAAGGCGAGACGTCGGCACTCGTGACGTCCTCACACGGTTTTCACAACGCACTCACAAGACATGTGAGCAGCACGTAGCGGACCCGGTACGCCTGGGCAATGGTGCGGCAACGGGGTTCTCCGACGCTGAACGCATG (double strand) [msmeg_5765 promoter]”: the binding entry was “binds more weakly” in data set [1] and “binds” in data set [2].
With “GACCCCTGGTGACCGCGTAACGGCTTTCTCACAGGTGCCCGCCGATCCAGGTGAGCGGAATTTCACGGCCGGGTCATCGCGCGCAGTGTCGGGGCAATAATCGCTTTCTAGCGTGCTCGCATG (double strand) [msmeg_0433 promoter]”, the binding result is recorded as “binds more weakly” in data set [1] and “binds” in data set [2].
With “CATAGGGCGAGGCTAAGAACCCGATATTGCCGCGATGTCGCGCTGTGTGAAGCCCCCATCACGGTGTGCTCACGTCTTCGGCAACGCACATGTGAGGTCCCCGACCGGTGAGCTCTCCGGACCACAGTCAGGCCACAACCGCC (double strand) [msmeg_0427 promoter]”, the binding entry in data set [2] is on record as “binds”.
As to “GCAGCTTGGACCACCTATTTCCACGCCATGAACGACCTCGCCCGAAAATTGATGAGCGCGTTCGCCCTCGGGTTGAGGTTGCCCGCCGACTACTTCGTCGACACCATCGA (double strand) [msmeg_4008 promoter]”, the binding result is recorded as “no binding” in data set [1], “no binding” in data set [2] and “binds” in data set [3].
Consider “ATCTGCATCATCTCGCGACTTTGGTCAGCTGTCGCCCTGGCGCGCCGAGGCACGGCAGGTTTCGCACGCCCAGGCATCTCACAGCCGACGCTGAGCTGATGTGCGCAGATGGCAACACCGATGCATAGGTCAAGTCGCCGAACCGCAATCTGGGCGCGACACGGTCTAGGGAACTGTCCATCGGGTCCATCGGAAGGTTGCACCCAATG (double strand) [msmeg_5360 promoter]”, for which the figures for the binding result in data set [1], in data set [2] and in data set [3] were “no binding”, “no binding” and “binds”, respectively.

These data come from publication PMC6277429.
